Measurements as given in the nanobody polyreactivity screen of Harvey et al. (2022).

Assay: yeast display, Sf9 membrane polyspecificity reagent, FACS + sequencing; frameworks hold sequencing errors
Summary of the method: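 Galactose induction of a Saccharomyces cerevisiae BJ5465 synthetic nanobody display library ran 36–48 hours. The cells were then stained for 1 hour at 4 °C with 10% biotinylated, detergent-solubilized Sf9 membrane reagent, pulled down on streptavidin microbeads and FACS-sorted into low and high (top ~1%) gates on expression and reagent-binding fluorescence. Labels for polyreactivity follow the gate of origin.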

Row | Sequence | polyreactivity (PSR sort gate)
1 | QVQLVESGGGLVQAGGSLRLSCAASGSTFDTYGMGWYIQAPGKERELDASISSRGGSTYYADSVEGRFTISRDNAKNSVYLQMNSLKPDDTAVYYCAADWLSWFHGYGMYYWGQGTKVTVSS | low polyreactivity
2 | QVQLVESGGGIVQAGGSLRLSCAASGSTFNYYAMGWYRQAPGKERELVAAISISGGSTYYADSVKGRFTISRDNAKNTVYLQMNSLKPEDTAVYYCAAVPYGFVGYDDYWGQGTQVTVSS | low polyreactivity
3 | QVQLVESGGGLVQPGGRLLLSSAASGSIFDYYVMGWYRLEPVKERELVAAISWSGASTYYADSVKGRFTISRDNAKNTVYVKMNSLKPEDTAVYYCAADYGVNTLIDYDYWGQGTQVTVSS | low polyreactivity
4 | QVQLVESGGGLVQAGGSLRLSCAASGRNFPYYAMGWYRQAPGKERELVAAISSSGGRTYYADSVKGRFTISRDNAKNTVYLQMNSLIPEDTAVYYCNVDAWYPYQGFLVGYYYWGQGTQVTVSS | low polyreactivity
5 | QVQLVESGGGLVQAGGSLRLSCAASGSTLIFYAMGWYRQAPGKERELVAAIRFSGGTTYYADSVKGRFTISRDNAKNTVYLQMNSLKPEDTAVYDCAADPRPAYGYYYLYADFDYWGLGTQVTVSS | low polyreactivity
6 | QDQIVESGGGLVQAGGSLRLSCSATGRTYVIYAMGWYRQAHGKERELVASIRRGGSTSYADSVKGRFTISRDNAKNTVYLQMKSLKPEDTAVYYCAAGAHRASSSGNGYWGQGSQVTVSS | high polyreactivity
7 | QDQLVESGGGLVQAGGSLRLSCAASGYTFKAYAMVWYRQAPGKERELVDAISRGGRTNYADSVKGRFTISRDNAKNTVYLQMNSLKPEDTAVYYCNTQRQLGVRFYDRSRQGDYWGQGTQVTVSS | high polyreactivity
8 | QVQLVESGGGLVQAGGSLRLSCAASGSTFRINAMGWYRQAPGKERELVAAITSGGSTKYADSVKGRFTISRDNAKNTVYLQMNSLKPEDTAVYYCNKQGYPYRYFAWYPGYNYWGQGTQVTVSS | low polyreactivity
9 | QVQHVESGGGLDQAGGSLRFSCAASGTIFVYNAMGSYREAPGKERELVAAMDTVGSTNYADSVKGRFTISRDNAKNTVYLQMNSLKPEDTAVYYCAVVTPYWSFFEQVIPSNYWGQGSQVTVSS | low polyreactivity
10 | QDQLVESGGGLVQAGGSLRFSCAPSGFTFTRNPLGCYRQAPGQEREFVARISSRGGSTYYADSVKGRYTISRDIAKNSVYLQMNSLTPEDTAVNYCARDPVGTNSARYNYWGQGTQVTVSS | high polyreactivity
11 | QVQRVESWGGLVQAGGSLRLSCAASGSIFDVYTMGWYRQAPGKERELVAAINTGGGSTYYADSVKGRFTISRDNAKNTVYFQMNSLKPEDTAVYYCAAQWWWKRPVRYEYWGQGTLVTVSS | low polyreactivity
12 | QVQLVESGGGLVQAGGSLRLSCAASGITFYYYAMGWYRQAPGKERELVAAISRSGGRTYYADSVKGRFTISRDNAKNTVYLQMNSLNPEDTAVYYCAAVRYQGGDSSIEYDYWGQGTQVTLSS | high polyreactivity
13 | QVQLVESGVGLVQAGGSLRISCAASRSTFWNNCMGWYRQAPGKERDLVAAITVRGGSTYYADSVKGRFTISRDNAKNTVYLQMNSLKPEDTAVYFCAADRWLYSWFFNYDQGDYWGQGTQVSVSS | low polyreactivity
14 | QVQLVESGGGLVQAGGTLRLSCSASGRTFPGYAMGWYRQAPGKERELVAVISLSGGRTNYADSVKGRFTISRDNAKNTVFLLMNSLKPEDTAVYYCAGRYHGHSNDYWGQGTQVTVSS | low polyreactivity
15 | HVQLVQSGGGLVQAGGSSRLSCAASGSIFFFNTMGWYSQAPGKERELVAVITSGGSTYYADSVTGRFRISRDNAKNTVYVQMNSLKPEDPAVYYCAARYLPYRRIKYDYWGQGTQVTVSS | low polyreactivity
16 | QDQLVDSGGGLVQAGGSLRLSCAASGTFFMGWYRQAPGKERELVAGISIYDGSTYYADSVKGRFTISRDNAKNTVYLQMNRLKPEDTAVYYCAAEFYPTTGFDYWGQGTQVTVSS | low polyreactivity
17 | QVQLVESGGGLVQAGGSLRISCAASGFIFAHNAMGWYRQAPGKERELVAAITSSGGSTYYADSVKGRFTISRDNAKNTVYLQMNSLKPEDTAVYYCAAYWKLGGFRYGYWGQGTQVTVSS | high polyreactivity
18 | QVQLVESGGGLVQAGGSLRLRCAASGSTFAYYAMGWYRQAPGKERELVAAISSGGSTYYADSVKGRFTISRDNAKNTVYIQMNSLKAEETAVYYCNKLRVVKFKRYEFGEWGQGTQVTVSS | low polyreactivity
19 | QVQLVESGGGLVQAGGSLRLSCAASGRIFVPYAMGWYRQAPGKERELVAAISWRGGSTNYADSVKGRFTISRDNAKNTVYLQMNSLKPEDTAVYYCAAVPVRYRYSYGYYYWGQGTQVTVSS | high polyreactivity
20 | QVQLVESGGGLVQAGGSLRLSCAASGLIFYRNAMGWYRQAPGKERELVAAISKNGGNTYYADSVKGRFTISRDNAKNTVYLQMYSLKPEDTAVYYCAARELYGPFGYWGQGTQVTVSS | high polyreactivity
21 | QVQLVESGGGLVQAGGSLRLSCAASGNIFYLNTMGWYRQAPGKERELVASISRDGGRTYYADSVKGRFTISRDNAKNTVYLQMNSLKPEDTAVYYCAAVVLHHFTEVGQHYYWGQGTQVTVSS | low polyreactivity
